Test results published in publication PMC3719173 (Nature structural & molecular biology, 2010).

T1: GST-Rev-erbα LBD (human)
T1 sequence (P20393 whole entry, looked up): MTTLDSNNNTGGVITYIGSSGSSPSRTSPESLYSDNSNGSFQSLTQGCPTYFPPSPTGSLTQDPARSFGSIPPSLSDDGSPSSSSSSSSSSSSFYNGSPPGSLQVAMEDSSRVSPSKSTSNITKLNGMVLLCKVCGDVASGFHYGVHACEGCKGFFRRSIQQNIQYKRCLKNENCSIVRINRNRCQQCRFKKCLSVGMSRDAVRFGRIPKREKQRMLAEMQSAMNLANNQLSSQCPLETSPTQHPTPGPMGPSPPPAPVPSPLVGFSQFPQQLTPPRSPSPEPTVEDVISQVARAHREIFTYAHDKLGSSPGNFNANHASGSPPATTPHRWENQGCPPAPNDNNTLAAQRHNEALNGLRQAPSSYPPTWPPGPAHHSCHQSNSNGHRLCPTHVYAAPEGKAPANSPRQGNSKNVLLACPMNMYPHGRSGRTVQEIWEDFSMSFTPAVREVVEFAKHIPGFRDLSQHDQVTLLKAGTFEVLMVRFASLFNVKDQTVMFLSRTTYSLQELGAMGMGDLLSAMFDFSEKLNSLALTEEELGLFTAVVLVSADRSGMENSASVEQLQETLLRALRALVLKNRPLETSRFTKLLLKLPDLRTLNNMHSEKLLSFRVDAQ

B1: human Rev-erbα LBD (281–614 Δ324–422) (domain or fragment, UniProt P20393 281-614, looked up)
chain: PEPTVEDVISQVARAHREIFTYAHDKLGSSPGNFNANHASGSPYPHGRSGRTVQEIWEDFSMSFTPAVREVVEFAKHIPGFRDLSQHDQVTLLKAGTFEVLMVRFASLFNVKDQTVMFLSRTTYSLQELGAMGMGDLLSAMFDFSEKLNSLALTEEELGLFTAVVLVSADRSGMENSASVEQLQETLLRALRALVLKNRPLETSRFTKLLLKLPDLRTLNNMHSEKLLSFRVDAQ

Key:
[1] = test system: Rev-erbα LBD; conditions: NCoR ID1 peptide; cited from earlier work
[2] = molecular target: T1, GST-Rev-erbα LBD (human); assay: FRET or BRET
[3] = molecular target: the molecule itself; assay: crystal structure
[4] = molecular target: B1; assay: crystal structure

| Molecule | IC50 [2] [nM] | further results |
| --- | --- | --- |
| C=CC1=C(C)c2cc3[n-]c(cc4[n-]c(cc5nc(cc1n2)C(C)=C5C=C)c(C)c4CCC(=O)O)c(CCC(=O)O)c3C.[Fe+2] [heme] | – | Effect of heme binding on interaction of Rev-erbα LBD with ID1 peptide [1]: destabilizes the interaction of Rev-erbα with the ID1 peptide |
| NCoR (2040–2065) +1Ile2055 alanine mutant peptide (from UniProt O75376 2040-2065) | 50300 | – |
| NCoR (2040–2065) +4Ile2058 alanine mutant peptide (from UniProt O75376 2040-2065) | 8100 | – |
| NCoR (2040–2065) +5Ile2059 alanine mutant peptide (from UniProt O75376 2040-2065) | 19400 | – |
| NCoR (2040–2065) +9F2063A peptide (from UniProt O75376 2040-2065) | 1900 | – |
| NCoR (2040–2065) −1H2054A peptide (from UniProt O75376 2040-2065) | 250 | – |
| NCoR (2040–2065) −4Leu2051A peptide (from UniProt O75376 2040-2065) | 600 | – |
| NCoR (2040–2065) −7Leu2048A peptide (from UniProt O75376 2040-2065) | 570 | – |
| NCoR (2040–2065) −9His2046A peptide (from UniProt O75376 2040-2065) | 540 | – |
| control wild type NCoR ID1 (2040–2065) peptide (from UniProt O75376 2040-2065) | 220 | – |
| B1 | – | binding result [3]: binds |
| THRLITLADHICQIITQDFAR [NCoR CoRNR1 peptide (2045–2065)] | – | binding result [4]: binds |
